The text below walks through data of patent US8796201B2 (The Board of Trustees of the Leland Stanford Junior …, priority 2002, dated 2014).

For data set [1], the system named is PQPQLPYPQPQLP
Briefly: Site specificity of […] hydrolysis, LC/MS/MS. The data set is classed as biochemical, wheat. The conditions noted are these: 100 μM peptide, 0.1 μM enzyme, early time points. The procedure: FIG. 10. Site specificity of […] hydrolysis by individual PEPs. HPLC-UV (215 nm) traces are shown for each reaction mixture. Initial cleavage fragments (100 μM (SEQ ID NO:4) […], 0.1 μM enzyme, t=5 min) were identified by tandem mass spectrometry. The starting material (SEQ ID NO:4) […] and the cleavage fragments A: (SEQ ID NO:4, aa. 1-8) […], B: (SEQ ID NO:4, aa 7-13) YPQPQLP, C: (SEQ ID NO:12, aa 1-6) PQPQLP, D: (SEQ ID NO:4, aa 2-6) QPQLP) are indicated in the traces.
The decrease in substrate concentration as well as concomitant intermediate and product build-up were monitored with HPLC analysis. RP-HPLC was performed on a system consisting of Beckman or Rainin Dynamax SD-200, a Varian 340 UV detector set at 215 nm and 280 nm. Solvent A was H2O with 0.1% TFA and solvent B was acetonitrile with 0.1% TFA; gradient used: 0-5% B in 0-15 min, 5-30% B in 15-30′, 30-100% B in 30-35 min, 100% B for 5′; flow 1 ml/min; separation was performed on a 4.6×150 mm reverse phase C-18 column (Vydac, Hesperia, Calif., USA). Samples were centrifuged for 10 min at 13,400 g, prior to injection of 10-100 μl. […] Thus, multiple peptides accumulate during the course of the reaction, some of which are secondary PEP substrates in themselves.
To analyze the regiospecificity of hydrolysis of (SEQ ID NO:4) […] by individual PEPs, samples corresponding to early time points were further analyzed by LC/MS/MS. […]

Data set [2] can be described thus: Kinetic analysis with reference substrate Succinyl-Ala-Pro-pNA. The conditions noted are these: Succinyl-Ala-Pro-p-nitroanilide hydrolysis. The data set is classed as biochemical. How it is done:
(§1) Activity Assays. Post-proline cleavage activity was measured using Z-Gly-Pro-p-nitroanilide and Succinyl-Ala-Pro-p-nitroanilide (Bachem, CA). Z-Gly-Pro-pNA was dissolved in a PBS:water:dioxane (8:1.2:0.8) assay mixture. The concentration of Z-Gly-Pro-pNA was varied from 100-600 μM. Although the substrate Z-Gly-Pro-pNA was effective in detecting enzyme activity, its insolubility at higher concentrations precluded kinetic measurements under substrate-saturated conditions. In contrast, Succinyl-Ala-Pro-pNA, had the advantage of high water solubility at all pH values tested, and was therefore a preferred substrate for kinetic studies. […] Reaction mixtures ([…] consisted of 30 μl of 10× pH buffer, final concentration of 0.01 μM enzyme, and Suc-Ala-Pro-pNA to final concentrations between 100 μM to 4 mM.
Kinetic Analysis with Reference Substrates. The activity of each PEP was initially evaluated using the standard chromogenic substrate succinyl-Ala-Pro-pNA. Release of the p-nitroaniline was detected at 410 nm, and kinetic data was fitted to the Michaelis-Menten relationship. Succinyl-Ala-Pro-pNA was selected as a reference substrate instead of the more commonly used Z-Gly-Pro-pNA due to the low solubility of the latter substrate, which necessitated use of co-solvents. The calculated kcat and KM values of FM, MX and SC PEPs for succinyl-Ala-Pro-pNA are tabulated (Table 3). […] The higher specificity of MX can be attributed mainly to its higher affinity for the substrate, as reflected in the KM.

Data set [3] is described as follows: Enzyme activity vs. pH (kcat titration). In kind it is biochemical. The conditions noted are these: for active site pKa: 100-4000 μM succinyl-Ala-Pro-pNA. How it is done: FIG. 8. Effect of pH on the turnover numbers (kcat) of FM PEP, MX PEP and SC PEP.
as §1
Enzyme Activity vs. pH. The luminal environment of the duodenum is approximately at pH 6. Therefore, a therapeutically useful PEP must retain high specific activity at that pH. The steady state turnover rate, kcat, of each PEP was titrated in various pH conditions using 100-4000 μM succinyl-Ala-Pro-pNA, shown in FIG. 8. […] Such conformational changes have been implicated in the catalytic cycle of the structurally characterized porcine brain PEP.

Data set [4] relates to 33-mer gliadin peptide. Nature of the data set: In vivo endopeptidase activity: co-perfusion of 33-mer and PEP in rat jejunum. The procedure: FIG. 7. Breakdown and detoxification of 33-mer gliadin peptide with PEP.
FIG. 14. (SEQ ID NO:12) Proteolysis of […] (5 μM) co-perfused with individual PEP's (0.1 μM) in the small intestinal lumen of an anesthetized rat. Each enzyme-substrate mixture was introduced via a catheter into a 15-20 cm segment of the upper jejunum. Samples were collected at the other end of the segment, and analyzed by UV-HPLC (215 nm). The control without any PEP is shown in the top trace.
In accordance with the methods of the invention, a prolyl endopeptidase can catalyze breakdown of this peptide, thereby diminishing its toxic effects. […] The ability of this PEP to clear the 33-mer gliadin peptide was evaluated via in vitro and in vivo experiments.
In Vivo Endopeptidase Activity. An adult (female or male) rat was anesthetized and maintained at 36-37° C. during the entire surgical procedure. The peritoneal cavity was opened, and a small incision was made at the beginning and the end of a 15-20 cm jejunum segment. Polyethylene catheters were inserted and secured into the two ends. The input catheter was connected with a pump-driven syringe filled with a solution. […] The collected digestive products were analyzed by HPLC on a C18 column.
In Vivo Hydrolysis. […] In this live animal model, the impact of concerted action of the perfused (luminal) PEP and the brush border (surface) peptidases is assessed.

As a reminder, the Km is the substrate concentration at which the rate is half of its maximum.

B1: MX PEP: novel recombinant prolyl endopeptidase from Myxococcus xanthus (Genbank AF127082, SEQ ID NO:47) (protein, listed as Myxococcus xanthus)
chain: MSYPATRAEQVVDTLHGVQVADPYRWLEDEKAPEVQTWMTAQNAHAREALAKFPGREALAARFKELFYTDSVSTPSRRNGRFFYVRTHKDKEKAILYWRQGESGQEKVLLDPNGWSKDGTVSLGTWAVSWDGKKVAFAQKPNAADEAVLHVIDVDSGEWSKVDVIEGGKYATPKWTPDSKGFYYEWLPTDPSIKVDERPGYTTIRYHTLGTEPSKDTVVHERTGDPTTFLQSDLSRDGKYLFVYILRGWSENDVYWKRPGEKDFRLLVKGVGAKYEVHAWKDRFYVLTDEGAPRQRVFEVDPAKPARASWKEIVPEDSSASLLSVSIVGGHLSLEYLKDATSEVRVATLKGKPVRTVQLPGVGAASNLMGLEDLDDAYYVFTSFTTPRQIYKTSVSTGKSELWAKVDVPMNPEQYQVEQVFYASKDGTKVPMFVVHRKDLKRDGNAPTLLYGYGGFNVNMEANFRSSILPWLDAGGVYAVANLRGGGEYGKAWHDAGRLDKKQNVFDDFHAAAEYLVQQKYTQPKRLAIYGGSNGGLLVGAAMTQRPELYGAVVCAVPLLDMVRYHLFGSGRTWIPEYGTAEKPEDFKTLHAYSPYHHVRPDVRYPALLMMAADHDDRVDPMHARKFVAAVQNSPGNPATALLRIEANAGHGGADQVAKAIESSVDLYSFLFQVLDVQGAQGGVAAQGR
With B1, the “preferred site of cleavage in PQPQLPYPQPQLP” value in data set [1] is recorded as “PQPQLP|YPQPQLP”. In addition, in data set [2], the Kcat was 51 s⁻¹ and the Km worked out at 350 µM. In data set [3], the “active site pKa” value is on record as ~6.

B2: PEP: prolyl endopeptidase; Examples 1-2: from Flavobacterium meningosepticum (US Biological); Example 11: source not stated (protein, UniProt P27028 21-705, looked up)
Prolyl endopeptidase: QNSNVLKYPETKKVSHTDTYFGTQVSDPYRWLEDDRAEDTKAWVQQEVKFTQDYLAQIPFRDQLKKQLMDIWNYEKISAPFKKGKYTYFSKNDGLQAQSVLYRKDAAGKTEVFLDPNKFSEKGTTSLASVSFNKKGTLVAYSISEGGSDWNKIIILDAETKKQLDETLLDVKFSGISWLGDEGFFYSSYDKPKEGSVLSGMTDKHKVYFHKLGTKQSQDELIIGGDKFPRRYIGAYVTDDQRYLVVSAANATNGNELYIKDLKNKTDFIPIITGFDSNVNVADTDGDTLYLFTDKDAPNKRLVKTTIQNPKAETWKDVIAETSEPLEINTGGGYFFATYMKDAIDQVKQYDKNGKLVRAIKLPGSGNASGFGGEKTEKDLYYSFTNYITPPTIFKYNVTTGNSEVYQKPKVKFNPENYVSEQVFYTSSDGTKIPMMISYKKGLKKDGKNPTILYSYGGFNISLQPAFSVVNAIWMENGGIYAVPNIRGGGEYGKKWHDAGTKMQKKNVFNDFIAAGEYLQKNGYTSKEYMALSGRSNGGLLVGATMTMRPDLAKVAFPGVGVLDMLRYNKFTAGAGWAYDYGTAEDSKEMFEYLKSYSPVHNVKAGTCYPSTMVITSDHDDRVVPAHSFKFGSELQAKQSCKNPILIRIETNAGHGAGRSTEQVVAENADLLSFALYEMGIKSLK
With B2, the “detoxification (clearance) of the 33-mer gliadin peptide” value in data set [4] (rat BBM and co-perfusion in intact rat intestines) is “this detoxification was demonstrated”.

B3: FM PEP: recombinant prolyl endopeptidase from Flavobacterium meningosepticum (Genbank D10980) (protein)
chain: B2 Prolyl endopeptidase
On to B3, for which the “preferred site of cleavage in PQPQLPYPQPQLP” value in data set [1] is listed as “PQPQLPPYP|QPQLP”. Further, the “breakdown of the 33-mer co-perfused in rat jejunum” value in data set [4] (5 μM 33-mer, 0.1 μM PEP, 15-20 cm segment) was “promoted more complete breakdown of the 33-mer than both the MX and the SC PEP”. Moreover, in data set [2], the Kcat is 33 s⁻¹ and the Km came to 910 µM. Moreover, in data set [3], the “active site pKa” value is recorded as ~6. The pH optimum in data set [3] (as stated in the description, no method given) is listed as ~7.
